Experiment [1] has as its target T1, recombinant HDM2 protein (GST tagged, Abcam, Cat. No. ab188727) (human, UniProt Q00987 1-491).
T1 construct: Bought protein, called full-length, about 83 kD with the tag; also called recombinant full-length HDM2 protein; recombinant HDM2-GST protein; not shown: GST tag at the N-terminus
Put plainly: immunoblot. The procedure: Western Blot: As for immunoblots, 1 μg/well of recombinant HDM2 protein (GST tagged, Abcam, Cat. No. ab188727) was separated on 8-16% sodium dodecyl sulfate (SDS) polyacrylamide gel and proteins were then transferred to polyvinylidene difluoride (PVDF) membrane. […] The membrane was then washed×3 times (10 minutes each) and incubated for 1 hour with corresponding HRP-conjugated secondary antibody (Goat anti-Mouse IgG (H&L), F(ab′)2 Frag Cross-adsorbed HRP (HRP-GaM F(ab′)2), ThermoFisher, Cat. No. A24524) diluted 1:5000 in 1% BSA-PBS. The membrane was then washed×3 times and incubated with Pierce ECL Plus Western Blotting Substrate (ThermoFisher, Cat. No. #32132) for 10 min before developing on a LICOR Scanner.
(In general: In western blotting, separated proteins are transferred to a membrane and probed.)

The target in experiment [2] is T2, NMC-P3 peptide (human).
T2 peptide: CPVCRQPIQMIVLTYFP
Put plainly: peptide-ELISA, plate-bound peptide. The procedure: (§1) Peptide-ELISA Methodology: 5 μg/ml of NMC-P1, NMC-P2 or NMC-P3 peptide antigen was dried onto a 96-well ELISA plate overnight. Plates were then blocked with 5% BSA in 1× phosphate-buffered saline (PBS) (100 μl/well) for 2 hours at room temperature. Microplate wells were then washed 5 times with 300 μl of ice cold lx PBS. […] After 2 hours, wells were washed 5 times with 300 μl ice-cold PBS/well and 100 μl secondary antibody (HRP-labeled Goat anti-Mouse F(ab′)2 H&L cross-adsorbed secondary antibody (HRP-GaM F(ab′)2), ThermoFisher, Cat. No. A24524) diluted 1:2500 to 1:5000 in PBS-1% BSA solution were added and the incubation continued at room temperature. After 1 hour, the wells were washed again 5 times with 200 μl of ice-cold PBS and 50 μL of the TMB Substrate Solution (1-StepTM Ultra TMB-ELISA, ThermoFisher, Cat. No. 34028) were added to each well and color was allowed to develop for 30 minutes at room temperature. The reaction was stopped by addition of 50 μL of stop solution (ThermoFisher, Cat. No. SSO4) to each well and absorbance of each well was read immediately for optical density (OD) at 450 nm.
(In an ELISA, binding on a coated surface is turned into a signal by an enzyme label.)

Experiment [3] has as its target T3, NMC-P2 peptide (human).
T3 construct: Peptide corresponding to amino acids 15-25 of HDM2
T3 peptide: TTSQIPASEQE
The experiment can be described thus: peptide competition in cell-ELISA on intact MIA PaCa-2 cells.

Another experiment has as its target T4, NMC-P1 peptide (human).
T4 construct: Peptide corresponding to amino acids 1-15 of HDM2
T4 peptide: MCNTNMSVPTDGAVT
The experiment can be described thus: peptide-ELISA, plate-bound peptide. As to the method: as §1

The target in experiment [4] is T3, NMC-P2 peptide. Put plainly: peptide-ELISA, plate-bound peptide. As to the method:
as §1

Experiment [5] concerns the target T2, NMC-P3 peptide. Put plainly: competition peptide-ELISA, soluble peptide pre-incubated with the antibody. As to the method:
as §1

The values below come from patent US20210032364A1 (NOMOCAN PHARMACEUTICALS, published 2021).

T1 sequence (Q00987 whole entry): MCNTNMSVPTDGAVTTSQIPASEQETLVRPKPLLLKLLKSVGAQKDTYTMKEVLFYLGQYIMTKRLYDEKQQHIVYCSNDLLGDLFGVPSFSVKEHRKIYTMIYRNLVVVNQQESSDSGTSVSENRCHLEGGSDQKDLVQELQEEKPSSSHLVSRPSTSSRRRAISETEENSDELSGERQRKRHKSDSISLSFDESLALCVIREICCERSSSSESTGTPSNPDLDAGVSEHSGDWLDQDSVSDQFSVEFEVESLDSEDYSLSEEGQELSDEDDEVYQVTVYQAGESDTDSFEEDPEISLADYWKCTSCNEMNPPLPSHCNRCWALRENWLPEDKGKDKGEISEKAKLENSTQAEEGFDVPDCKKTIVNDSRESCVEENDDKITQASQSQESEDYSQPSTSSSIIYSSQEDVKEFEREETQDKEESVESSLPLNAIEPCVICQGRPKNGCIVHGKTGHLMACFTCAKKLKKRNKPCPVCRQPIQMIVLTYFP

B1: monoclonal antibody NMC-303 (antibody, V domains shown)
VH: QVQLQQPGAELVKPGASVKLSCKASGYTFTSYYMYWVKQRPGQGLEWIGGINPRNGGTNFNEKFKNKATLTADKSSTTAYMQLSSLTSEDSAVYYCTRSGYYAMDYWGQGTSVTVSS
VL: DIQMTQTTSSLSASLGDRVTISCRASQDISNFLNWYQQKPDGTVKLLIYYTSRLHSGVPSRFSGSGSGTDYSLTISNLEQEDIATYFCQQGNTLPRTFGGGTKLEIK
On to B1, for which the binding result in experiment [1] is on record as “binds”; in the experiment with NMC-P3 peptide [2] it was “binds”; with NMC-P2 peptide [3], “no binding”.

B2: monoclonal antibody NMC-103 (antibody, IgG1, V domains shown)
VH: EVQLQESGGGLVQPGGSLRLSCTTSGFTFTHYYMSWVRQPPGKALEWLGFIRNKAKGYTAEYSASVKGRFTISRDNSQSILYLQMNTLRPEDSATYYCARDIGDNWGQGTLVTVSS
VL: DIVMTQAAFSNPVTLGTSASISCRSSKNLLHSNGITYLYWYLQRPGQSPQLLISRVSNLASGVPNRFSGSESGTDFTLRISRVEAEDVGVYFCAQLLELPYTFGGGTKLEIK
As for B2, the binding result with NMC-P1 peptide is recorded as “binds”; with NMC-P2 peptide [4], “no binding”; with NMC-P3 peptide [5] it was “no binding (tested: 10 µl/ml)”.

B3: monoclonal antibody NMC-204 (antibody, IgG3, V domains shown)
VH: EVQLQESGSVLVRPGASVKLSCKASGDTLSGSWMHWAMQRPGQGLEWIGEIHLNRGTTNYNEKFKGKATVTVDTSSSTAYVDLSSLTSEDSAVYYCARSPGFAYWGQGTLVTVSA
VL: GIVMTQAAPSVPVTPGESVSISCRSSKSLLHSNGNSYLYWFLQRPGQSPQLLIYRMSNLASGVPDRFSGSGSGTAFTLRITRVEAEDVGVYYCMQHLEYPFTFGSGTKLEIK
With B3, the values for the binding result with NMC-P1 peptide, in the experiment with NMC-P2 peptide [4] and with NMC-P3 peptide [2] were “no binding”, “binds” and “no binding”, respectively.
